In PMC11814294, “A pathogen effector HaRxL10 hijacks the circadian clock component CHE to perturb both plant development and immunity” (Nature Communications, 2025):

Key:
GST-His-ZTL [1] = target: T1, GST-His-ZTL (Arabidopsis thaliana, UniProt Q94BT6 1-609, RED-NHS 2nd Generation fluorescent label (in the MST assay only)); experiment: MST; 50 nM RED-NHS-labelled GST-ZTL with serially diluted His-CHE, without or with 5 uM His-HaRxL10; 50 mM Tris-HCl pH 7.4, 150 mM NaCl, 10 mM MgCl2, 0.1% Pluronic F-127, Tween-20; 25 °C; Monolith NT.115; settings: both partners purified
T1 construct: Vector pET-42a (GST-tag); Printed molecular weight 99 kD; Called GST-His-ZTL in the pull-downs and GST-ZTL in the MST assay; also called GST-ZTL; ZEITLUPE; source: E. coli BL21 (DE3), purified (GST-beads); not shown: GST, N-terminal, kept; His, N-terminal, kept

GST-His-ZTL [2] = target: T1, GST-His-ZTL; experiment: pull-down; MBP-His-CHE and GST-His-ZTL in equal amounts (about 5 ug), amylose resin, MBP column buffer (20 mM Tris-HCl pH 7.4, 0.2 M NaCl, 1 mM EDTA), 2-3 h at 4 °C; blots with anti-MBP and anti-GST; settings: both partners purified

T1 sequence (Q94BT6 whole entry): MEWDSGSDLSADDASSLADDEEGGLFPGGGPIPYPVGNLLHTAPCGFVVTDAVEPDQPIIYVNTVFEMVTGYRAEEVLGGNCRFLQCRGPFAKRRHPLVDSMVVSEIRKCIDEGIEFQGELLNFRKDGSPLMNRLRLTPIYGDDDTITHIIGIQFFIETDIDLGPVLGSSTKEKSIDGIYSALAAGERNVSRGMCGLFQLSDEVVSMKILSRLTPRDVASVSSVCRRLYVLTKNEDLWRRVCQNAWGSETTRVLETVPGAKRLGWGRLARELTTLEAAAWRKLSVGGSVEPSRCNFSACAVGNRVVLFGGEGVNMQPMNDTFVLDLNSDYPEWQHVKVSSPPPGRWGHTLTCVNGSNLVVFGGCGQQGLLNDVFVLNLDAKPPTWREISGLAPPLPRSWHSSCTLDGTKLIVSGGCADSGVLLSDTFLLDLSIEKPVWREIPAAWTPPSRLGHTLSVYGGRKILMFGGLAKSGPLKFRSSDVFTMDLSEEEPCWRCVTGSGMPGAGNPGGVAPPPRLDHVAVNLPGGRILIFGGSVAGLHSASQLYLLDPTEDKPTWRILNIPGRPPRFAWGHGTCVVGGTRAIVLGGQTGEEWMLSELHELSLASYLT
Sequence of His-CHE (Q9FTA2 whole entry, change not shown): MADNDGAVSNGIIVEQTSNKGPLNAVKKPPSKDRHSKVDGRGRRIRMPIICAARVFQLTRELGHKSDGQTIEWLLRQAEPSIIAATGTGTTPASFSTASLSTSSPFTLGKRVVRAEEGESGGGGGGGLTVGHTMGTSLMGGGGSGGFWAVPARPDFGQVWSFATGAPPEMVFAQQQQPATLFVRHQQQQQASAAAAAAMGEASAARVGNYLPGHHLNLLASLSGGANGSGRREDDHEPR
Sequence of MBP-His-CHE (Q9FTA2 whole entry, change not shown): as above

Binder	binding result (GST-His-ZTL [1])	binding result (GST-His-ZTL [2])
His-CHE (natural protein, Vector pET28a (His-tag); source: E. coli BL21 (DE3), purified (Ni-NTA); not shown: His, N-terminal, kept) not shown	binds	
MBP-His-CHE (natural protein, Vector pQLink (MBP-His-tag); Printed molecular weight 70.1 kD; source: E. coli BL21 (DE3), purified (amylose resin); not shown: MBP, N-terminal, kept; His, N-terminal, kept) not shown		binds
